Test results: article PMC8720280
Blank lines part the entries; values can stand above or below the substance they belong to.

Assays:
Test in all cases: BLI
[1] = target: Lexatumumab; settings: Loading ID Biot-Lexa
[2] = target: Tiga
[3] = target: AMG655; settings: fit R^2 0.9925
[4] = target: KMTR2
[5] = target: SGE:AAA (135-137) NS Mut rDR5
[6] = target: KYGQ:AAGA (45-48) Mut rDR5

Kd ([1]; fit R^2 0.8916): 266 pM
kon ([1]; fit R^2 0.8916): 2.14e+06 M⁻¹ s⁻¹
Substance: WT DR5 recombinant protein (IgG4-Fc tagged extracellular domain of human DR5) (from UniProt O14763-1) C103_R104insA

koff ([2]; fit R^2 0.9860): 0.000153 s⁻¹
kon ([2]; fit R^2 0.9860): 1.72e+06 M⁻¹ s⁻¹
koff ([4]; fit R^2 0.9806): 1e-07 s⁻¹
kon ([4]; fit R^2 0.9806): 750000 M⁻¹ s⁻¹
Substance: WT DR5 recombinant protein (IgG4-Fc tagged extracellular domain of human DR5) (from UniProt O14763-1) K45A; Y46A; Q48A

kon ([2]; fit R^2 0.9770): 9.34e+06 M⁻¹ s⁻¹
Substance: WT DR5 recombinant protein (IgG4-Fc tagged extracellular domain of human DR5) (from UniProt O14763-1) E98A; M99A

koff [5]: 0.000625 s⁻¹
koff [6]: 0.000153 s⁻¹
Substance: Tigatuzumab

Continued, substance first:

Substance: WT DR5 recombinant protein (IgG4-Fc tagged extracellular domain of human DR5) (from UniProt O14763-1) S135A; G136A; E137A
koff ([2]; fit R^2 0.9793): 0.000625 s⁻¹
kon ([2]; fit R^2 0.9793): 742000 M⁻¹ s⁻¹
koff [3]: 6.82e-05 s⁻¹
kon [3]: 539000 M⁻¹ s⁻¹
koff ([4]; fit R^2 0.9964): 2.01e-05 s⁻¹
kon ([4]; fit R^2 0.9964): 791000 M⁻¹ s⁻¹

Substance: WT DR5 recombinant protein (IgG4-Fc tagged extracellular domain of human DR5) (from UniProt O14763-1) C103_R104insS
Kd ([1]; fit R^2 0.8774): 215 pM
kon ([1]; fit R^2 0.8774): 1.5e+06 M⁻¹ s⁻¹
